{
  "source": "patent EP4703382A1",
  "about": "(Kanglitai Biomedical (Qingdao) Co., Ltd., dated 2026)",
  "binders": {"B1": {"name": "PDL1-3 (VHH)", "VHH": "QVQLQESGGGLVQPGGSLRLSCAGSGSIFRITPVAWYRQAPEKQRELVAVITDNGSTDYGDFVKGRFTISRDNAKNTVYLQMNSLKPEDTAVYYCNSRARPVRWTWGQGTQVTVSS", "notes": "Alpaca nanobody expressed in E. coli, His-tagged"}, "B2": {"name": "Fusion 3 (other, murine)", "chain 1": "QVQLQESGGGLVQPGGSLTLSCAASGFTVSNSAVSWARQAPGKGLEWVSLIDSNRNTVYAQSVRGRFTISRDNVKNTVYLQMNSLKPEDTAVYYCAKGIWGSTLTGQGTQVTVSSGGGGSGGGGSGGGGSRVIPVSGPARCLSQSRNLLKTTDDMVKTAREKLKHYSCTAEDIDHEDITRDQTSTLKTCLPLELHKNESCLATRETSSTTRGSCLPPQKTSLMMTLCLGSIYEDLKMYQTEFQAINAALQNHNHQQIILDKGMLVAIDELMQSLNHNGETLRQKPPVGEADPYRVKMKLCILLHAFSTRVVTINRVMGYLSSAHHHHHHHH", "chain 2": "MWELEKDVYVVEVDWTPDAPGETVNLTCDTPEEDDITWTSDQRHGVIGSGKTLTITVKEFLDAGQYTCHKGGETLSHSHLLLHKKENGIWSTEILKNFKNKTFLKCEAPNYSGRFTCSWLVQRNMDLKFNIKSSSSSPDSRAVTCGMASLSAEKVTLDQRDYEKYSVSCQEDVTCPTAEETLPIELALEARQQNKYENYSTSFFIRDIIKPDPPKNLQMKPLKNSQVEVSWEYPDSWSTPHSYFSLKFFVRIQRKKEKMKETEEGCNQKGAFLVEKTSTEVQCKGGNVCVQAQDRYYNSSCSKWACVPCRVRS", "notes": "PDL1-1 nanobody fused with murine IL-12; two plasmids co-transfected 1:1; also called P1-mP35-8his + mP40"}, "B3": {"name": "PDL1-13 (VHH)", "VHH": "QVQLQESGGGLVQPGGSLRLSCAASGFTFSTSFVSWVRQAPGKGLEWVSRISPGGASTSYADSVKGRFTISRDNAENTLYLQMNSLKPEDTALYYCAREIYSGRFSGFDYWGQGTQVTVSS", "notes": "as for B1"}, "B4": {"name": "PDL1-1 (VHH)", "VHH": "QVQLQESGGGLVQPGGSLTLSCAASGFTVSNSAVSWARQAPGKGLEWVSLIDSNRNTVYAQSVRGRFTISRDNVKNTVYLQMNSLKPEDTAVYYCAKGIWGSTLTGQGTQVTVSS", "notes": "Alpaca nanobody expressed in E. coli, purified on HisTrap and detected with anti-His antibody; also called PD-L1-1 heavy chain single-domain antibody; P1"}, "B5": {"name": "PDL1-1v7 (VHH)", "VHH": "B4 VHH with Q1E, Q5L, T19R, V74S, K86R, T105W, Q110T", "notes": "Humanized PDL1-1, His-tagged"}, "B6": {"name": "PDL1-1v9 (VHH)", "VHH": "B4 VHH with Q1E, Q5L, T19R, V74S, K86R, P87A, T105W", "notes": "Humanized PDL1-1, His-tagged"}, "B7": {"name": "PDL1-1v1 (VHH)", "VHH": "B4 VHH with Q1E, Q5L, T19R, V74S, K86R, P87A, T105W, Q110T", "notes": "Humanized PDL1-1, His-tagged, from 293-F"}, "B8": {"name": "PDL1-1v4 (VHH)", "VHH": "B4 VHH with Q1E, T19R, V74S, K86R, P87A, T105W, Q110T", "notes": "Humanized PDL1-1, His-tagged"}, "B9": {"name": "PDL1-14 (VHH)", "VHH": "QVQLQESGGGLVQPGGSLRLSCAASGIISDINMVAWYRQAPGKQRELVAKIFRGGSTYYTDFVKGRFTISRENAKNTVYLQMNSLKPDDTAVYYCNARIQIRADRDYSDYWGQGTQVTVSS", "notes": "as for B1"}, "B10": {"name": "Fusion 4 (other, murine)", "chain 1": "RVIPVSGPARCLSQSRNLLKTTDDMVKTAREKLKHYSCTAEDIDHEDITRDQTSTLKTCLPLELHKNESCLATRETSSTTRGSCLPPQKTSLMMTLCLGSIYEDLKMYQTEFQAINAALQNHNHQQIILDKGMLVAIDELMQSLNHNGETLRQKPPVGEADPYRVKMKLCILLHAFSTRVVTINRVMGYLSSAHHHHHH", "chain 2": "QVQLQESGGGLVQPGGSLTLSCAASGFTVSNSAVSWARQAPGKGLEWVSLIDSNRNTVYAQSVRGRFTISRDNVKNTVYLQMNSLKPEDTAVYYCAKGIWGSTLTGQGTQVTVSSGGGGSGGGGSGGGGSMWELEKDVYVVEVDWTPDAPGETVNLTCDTPEEDDITWTSDQRHGVIGSGKTLTITVKEFLDAGQYTCHKGGETLSHSHLLLHKKENGIWSTEILKNFKNKTFLKCEAPNYSGRFTCSWLVQRNMDLKFNIKSSSSSPDSRAVTCGMASLSAEKVTLDQRDYEKYSVSCQEDVTCPTAEETLPIELALEARQQNKYENYSTSFFIRDIIKPDPPKNLQMKPLKNSQVEVSWEYPDSWSTPHSYFSLKFFVRIQRKKEKMKETEEGCNQKGAFLVEKTSTEVQCKGGNVCVQAQDRYYNSSCSKWACVPCRVRS", "notes": "PDL1-1 nanobody fused with murine IL-12; two plasmids co-transfected 1:1; also called mP35-6his + P1-mP40"}},
  "key": {"[1]": {"molecular_target": "T1, HAS (UniProt P02768 25-609)", "T1 construct": "unrelated protein of the specificity ELISA; label read as HSA", "assay": "ELISA, 200 ng/well coated, anti-His HRP"}, "[2]": {"molecular_target": "T2, BSA (UniProt P02769 25-607)", "T2 construct": "unrelated protein of the specificity ELISA", "T2 sequence (P02769 25-607 limits assumed)": "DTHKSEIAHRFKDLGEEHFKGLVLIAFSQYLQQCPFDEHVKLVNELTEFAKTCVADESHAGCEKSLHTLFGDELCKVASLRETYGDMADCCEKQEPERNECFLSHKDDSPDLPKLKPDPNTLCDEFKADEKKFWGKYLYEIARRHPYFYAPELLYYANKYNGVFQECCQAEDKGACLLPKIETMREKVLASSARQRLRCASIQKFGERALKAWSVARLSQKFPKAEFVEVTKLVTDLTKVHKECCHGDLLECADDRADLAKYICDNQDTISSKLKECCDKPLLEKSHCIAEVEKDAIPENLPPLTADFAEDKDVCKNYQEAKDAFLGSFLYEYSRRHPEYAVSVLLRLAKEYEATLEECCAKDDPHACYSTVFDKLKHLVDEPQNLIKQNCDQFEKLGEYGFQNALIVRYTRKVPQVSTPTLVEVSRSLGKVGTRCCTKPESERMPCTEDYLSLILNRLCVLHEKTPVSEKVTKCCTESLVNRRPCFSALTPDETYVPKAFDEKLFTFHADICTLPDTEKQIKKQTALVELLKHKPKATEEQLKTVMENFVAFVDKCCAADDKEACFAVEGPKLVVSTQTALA", "assay": "ELISA, 200 ng/well coated, anti-His HRP"}, "[3]": {"molecular_target": "T3, recombinant protein PD-L1-His (human, UniProt Q9NZQ7 19-238)", "T3 construct": "also called PD-L1-his fusion protein; human PDL1-his protein", "T3 sequence (Q9NZQ7 19-238 limits assumed)": "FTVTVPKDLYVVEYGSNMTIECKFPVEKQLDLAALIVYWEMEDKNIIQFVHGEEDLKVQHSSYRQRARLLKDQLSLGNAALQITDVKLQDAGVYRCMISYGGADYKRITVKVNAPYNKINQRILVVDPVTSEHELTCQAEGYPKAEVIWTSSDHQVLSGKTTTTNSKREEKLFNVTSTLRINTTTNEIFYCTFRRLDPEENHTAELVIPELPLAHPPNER", "assay": "competitive ELISA, PDL1-his coated, competitor PD1-Fc 50 µg/mL"}, "[4]": {"molecular_target": "T4, human PDL1-Fc fusion protein (human)", "T4 construct": "also called human PDL1-Fc recombinant protein", "T4 sequence (chain, as listed by the source limits assumed)": "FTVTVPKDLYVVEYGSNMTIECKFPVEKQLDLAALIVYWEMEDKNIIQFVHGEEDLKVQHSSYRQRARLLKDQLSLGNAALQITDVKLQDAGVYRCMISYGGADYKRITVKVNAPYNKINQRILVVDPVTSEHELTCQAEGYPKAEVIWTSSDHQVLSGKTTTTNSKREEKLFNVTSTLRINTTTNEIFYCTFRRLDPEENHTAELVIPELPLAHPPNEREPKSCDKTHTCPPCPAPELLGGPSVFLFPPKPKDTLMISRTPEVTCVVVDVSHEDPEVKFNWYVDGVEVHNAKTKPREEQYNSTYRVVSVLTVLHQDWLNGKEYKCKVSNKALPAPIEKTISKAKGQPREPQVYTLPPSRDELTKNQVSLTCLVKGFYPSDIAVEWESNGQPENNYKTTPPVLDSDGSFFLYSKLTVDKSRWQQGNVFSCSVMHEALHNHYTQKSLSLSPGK", "assay": "ELISA, human PDL1-Fc coated 200 ng/well, anti-His HRP"}, "[5]": {"molecular_target": "T5, human PD-L1 expressed on Raji cells (human, UniProt Q9NZQ7 19-290)", "T5 construct": "whole, on cells; also called Raji-PDL1; PDL1 protein expressed on Raji cells", "T5 sequence (Q9NZQ7 19-290)": "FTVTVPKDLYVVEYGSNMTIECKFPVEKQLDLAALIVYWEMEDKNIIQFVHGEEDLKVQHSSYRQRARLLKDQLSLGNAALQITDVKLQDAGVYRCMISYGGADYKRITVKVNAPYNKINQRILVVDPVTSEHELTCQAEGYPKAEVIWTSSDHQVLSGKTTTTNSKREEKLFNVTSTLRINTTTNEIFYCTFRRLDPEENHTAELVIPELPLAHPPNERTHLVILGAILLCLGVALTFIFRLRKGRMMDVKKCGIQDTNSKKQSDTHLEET", "assay": "flow cytometry competition on Raji-PDL1 cells, competitor PD1-Fc"}, "[6]": {"molecular_target": "T5, human PD-L1 expressed on Raji cells", "assay": "flow cytometry on Raji cells expressing human PD-L1, anti-His FITC"}, "[7]": {"molecular_target": "T4, human PDL1-Fc fusion protein", "assay": "ELISA, human PDL1-Fc coated 200 ng/well, anti-His HRP", "remark": "listed apart in the source"}, "[8]": {"molecular_target": "T4, human PDL1-Fc fusion protein", "assay": "ELISA, human PDL1-Fc coated 200 ng/well, anti-His HRP", "remark": "listed apart in the source"}, "[9]": {"molecular_target": "T5, human PD-L1 expressed on Raji cells", "assay": "flow cytometry competition on Raji-PDL1 cells, competitor PD1-Fc", "remark": "listed apart in the source"}, "[10]": {"molecular_target": "T4, human PDL1-Fc fusion protein", "assay": "BLI (ForteBIO Octet QKe), PDL1-Fc loaded, analyte 100 nM"}, "[11]": {"molecular_target": "T4, human PDL1-Fc fusion protein", "assay": "ELISA, human PDL1-Fc coated 200 ng/well, anti-His HRP", "remark": "listed apart in the source"}, "[12]": {"molecular_target": "T4, human PDL1-Fc fusion protein", "assay": "BLI (ForteBIO Octet QKe), PDL1-Fc loaded, analyte 100 nM", "remark": "listed apart in the source"}, "[13]": {"molecular_target": "T3, recombinant protein PD-L1-His", "assay": "competitive ELISA, PDL1-his coated, competitor PD1-Fc 50 µg/mL", "remark": "listed apart in the source"}, "[14]": {"molecular_target": "T4, human PDL1-Fc fusion protein", "assay": "ELISA, human PDL1-Fc coated 200 ng/well, anti-His HRP", "remark": "listed apart in the source"}, "[15]": {"molecular_target": "T4, human PDL1-Fc fusion protein", "assay": "BLI (ForteBIO Octet QKe), PDL1-Fc loaded, analyte 100 nM", "remark": "listed apart in the source"}, "[16]": {"molecular_target": "T4, human PDL1-Fc fusion protein", "assay": "ELISA, human PDL1-Fc coated 200 ng/well, anti-His HRP", "remark": "listed apart in the source"}},
  "note": "Changes are numbered by the printed parent chain. Where “and” joins values, the source holds several entries; their conditions need not be identical. Identical values can stand only once. Like-named read-outs stand apart in the source and are kept apart here.",
  "data": [
    {"binder": "B1", "values": [
      {"measurement": "binding result", "setting": "[1]", "value": "no binding (tested: 0.2 µg)"},
      {"measurement": "binding result", "setting": "[2]", "value": "no binding (tested: 0.2 µg)"},
      {"measurement": "IC50", "setting": "[3]", "value": 1.31, "unit": "µg/mL"},
      {"measurement": "EC50", "setting": "[4]", "value": 0.0128, "unit": "µg/mL"},
      {"measurement": "IC50", "setting": "[5]", "value": 0.0406, "unit": "µg/mL"},
      {"measurement": "EC50", "setting": "[6]", "value": 0.073, "unit": "µg/mL"}
    ]},
    {"binder": "B2", "values": [
      {"measurement": "EC50", "setting": "[7]", "value": "0.251 µg/mL and 3.33 nM"}
    ]},
    {"binder": "B3", "values": [
      {"measurement": "binding result", "setting": "[1]", "value": "no binding (tested: 0.2 µg)"},
      {"measurement": "binding result", "setting": "[2]", "value": "no binding (tested: 0.2 µg)"},
      {"measurement": "EC50", "setting": "[8]", "value": 0.0661, "unit": "µg/mL"}
    ]},
    {"binder": "B4", "values": [
      {"measurement": "binding result", "setting": "[1]", "value": "no binding (tested: 0.2 µg)"},
      {"measurement": "binding result", "setting": "[2]", "value": "no binding (tested: 0.2 µg)"},
      {"measurement": "IC50", "setting": "[3]", "value": 2.32, "unit": "µg/mL"},
      {"measurement": "IC50", "setting": "[9]", "value": 0.477, "unit": "µg/mL"},
      {"measurement": "Kd", "setting": "[10]", "value": 3.39, "unit": "nM"},
      {"measurement": "koff", "setting": "[10]", "value": 0.00563, "unit": "s⁻¹"},
      {"measurement": "kon", "setting": "[10]", "value": "1.66e+06", "unit": "M⁻¹ s⁻¹"},
      {"measurement": "EC50", "setting": "[4]", "value": 0.00825, "unit": "µg/mL"},
      {"measurement": "EC50", "setting": "[11]", "value": "0.0421 µg/mL and 3.48 nM"},
      {"measurement": "IC50", "setting": "[5]", "value": 0.0626, "unit": "µg/mL"},
      {"measurement": "EC50", "setting": "[6]", "value": 0.0606, "unit": "µg/mL"},
      {"measurement": "Kd", "setting": "[12]", "value": 2.96, "unit": "nM"},
      {"measurement": "koff", "setting": "[12]", "value": 0.00532, "unit": "s⁻¹"},
      {"measurement": "kon", "setting": "[12]", "value": "1.8e+06", "unit": "M⁻¹ s⁻¹"},
      {"measurement": "IC50", "setting": "[13]", "value": 5.8, "unit": "µg/mL"}
    ]},
    {"binder": "B5", "values": [
      {"measurement": "EC50", "setting": "[14]", "value": 0.028, "unit": "µg/mL"},
      {"measurement": "Kd", "setting": "[15]", "value": 10.9, "unit": "nM"}
    ]},
    {"binder": "B6", "values": [
      {"measurement": "EC50", "setting": "[14]", "value": 0.026, "unit": "µg/mL"},
      {"measurement": "Kd", "setting": "[15]", "value": 12.1, "unit": "nM"}
    ]},
    {"binder": "B7", "values": [
      {"measurement": "EC50", "setting": "[14]", "value": 0.0251, "unit": "µg/mL"},
      {"measurement": "Kd", "setting": "[15]", "value": 13.1, "unit": "nM"},
      {"measurement": "EC50", "setting": "[16]", "value": 0.0275, "unit": "µg/mL"}
    ]},
    {"binder": "B8", "values": [
      {"measurement": "EC50", "setting": "[14]", "value": 4, "unit": "µg/mL"},
      {"measurement": "Kd", "setting": "[15]", "value": 1320, "unit": "nM"}
    ]},
    {"binder": "B9", "values": [
      {"measurement": "binding result", "setting": "[1]", "value": "no binding (tested: 0.2 µg)"},
      {"measurement": "binding result", "setting": "[2]", "value": "no binding (tested: 0.2 µg)"},
      {"measurement": "EC50", "setting": "[8]", "value": 0.123, "unit": "µg/mL"}
    ]},
    {"binder": "B10", "values": [
      {"measurement": "EC50", "setting": "[7]", "value": "0.75 µg/mL and 9.91 nM"}
    ]}
  ]
}
